# Patent publication US20140303084A1 (Biogen, published 2014)
# Square brackets hold non-standard residues; d marks the D form. Primed or numbered codes have the meaning given here. Side chains are listed from the residue outwards. Ends that are not written are not given here. * marks the point of attachment. Biotin = O=C1N[C@H]2[C@H](CS[C@H]2CCCCC(=O)*)N1; NMeL = CN[C@@H](CC(C)C)C(=O)O; PEG2′ = PEG2 spacer unit
# T1: human Factor VIIa (human, UniProt P08709 61-466)
# T1 construct: Bought protein; also called hFVIIa; FVIIa
# T1 sequence (looked up): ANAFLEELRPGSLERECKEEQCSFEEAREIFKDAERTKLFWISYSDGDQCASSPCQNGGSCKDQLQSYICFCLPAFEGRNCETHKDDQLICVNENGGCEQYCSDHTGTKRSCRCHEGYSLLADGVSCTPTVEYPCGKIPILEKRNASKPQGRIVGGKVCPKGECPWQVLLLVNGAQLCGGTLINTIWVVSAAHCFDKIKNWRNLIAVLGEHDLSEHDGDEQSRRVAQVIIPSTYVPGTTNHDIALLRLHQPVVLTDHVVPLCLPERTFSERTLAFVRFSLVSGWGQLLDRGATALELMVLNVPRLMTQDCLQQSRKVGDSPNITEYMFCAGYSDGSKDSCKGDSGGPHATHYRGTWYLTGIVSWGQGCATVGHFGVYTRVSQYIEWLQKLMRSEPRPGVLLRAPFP
# What was measured:
# human Factor IXa [1] = target: T2, human Factor IXa (human, UniProt P00740 47-191; P00740 227-461); test: cell-based or functional assay
# human Factor IXa [2] = target: T2, human Factor IXa; test: cell-based or functional assay; remark: listed apart in the source
# human Factor IXa [3] = target: T2, human Factor IXa; test: cell-based or functional assay; remark: listed apart in the source
# human Factor VIIa = target: T1, human Factor VIIa; test: BLI (ForteBio Octet 384), peptide on streptavidin probes, soluble hFVIIa
# Experimental: (§1) Briefly, a layer of molecules attached to the tip of an optical fiber creates an interference pattern upon incident white light. The combination of the optical fiber and biocompatible surface creates the physical conditions needed for BLI, allowing the detection of changes in mass accumulation on the tip of the probe. This is measured by alterations in the spectral shift (nm). These changes are recorded as a binding profile, a continuous, real-time monitoring of the association and dissociation of interacting molecules.
# (§2) Control SA probes were loaded with 4M guanidinium chloride in the absence of biotinylated peptide for reference subtraction. After loading, probes were incubated in HBS-P for 300 sec to establish a new baseline. […] This is described as the dissociation phase. The equilibrium KD was derived from the non-linear regression analysis of the subtracted data (Reaction probe minus Reference probe) using a 1:1 binding model with ForteBio software (Version 7.0).
# human Factor IXa [4] = target: T2, human Factor IXa; test: BLI (ForteBio Octet 384), biotinylated peptide on streptavidin probes, soluble hFIXa 0-2000 nM, steady state, 1:1 model
# Experimental: as §1, §2
Binder,"EC50 [µM], FXa generation assay (human Factor IXa [1])",also measured
VDKGHQLRCQAGYCWLLGYNRE,> 50 µM,
EGRRDKLTCLASYCWLVGHGQH,> 25 µM,
KLTCLASYCWLF-NH2 (not fully specified (bridges); cysteine pairing not given here) [compound 1],,"EC50 [µM], FXa generation assay with hFIXa (human Factor IXa [1]): < 0.5 µM; EC50 (µM), FXa generation assay, without phospholipids (human Factor IXa [2]): 0.4 µM; EC50, FXa generation assay with human FIXa (human Factor IXa [3]): 300 nM"
QGQARKLACLASYCWLFPSSAG,> 50 µM,
RRAPGKLQCLASYCWLFWTAIA,< 0.5 µM,
GVEDRQLTCLASSCWVFSRHSV,> 1 µM,
RRAPGKLQCLASYCWLFWTGIA-NH2 (cysteine pairing not given here) [compound 25],,"EC50 [µM], FXa generation assay with hFIXa (human Factor IXa [1]): < 0.5 µM; Kd (human Factor VIIa): 250 nM"
APPGGKRMCLVSGCQLFPWSAS,> 50 µM,
GGALQQLTCPASYCWLFPMEHS,> 10 µM,
SGGSGKLTCLASYCWPFGSQVR,> 50 µM,
DAGPNKLRCLASYCQLFGGGHA,> 50 µM,
RFQTTQLTCLGSASCLFNLSVR,> 1 µM,
QDGDGKLTCRASYCRRFLVGVH,> 50 µM,
"RRAPGKLTCLASYCWLFK([PEG2′-Biotin])TGIA-NH2 (not fully specified (bridges); printed as RRAPGKLTCLASYCWLFK(PEG2-Biotin)TGIA; cysteine pairing not given here, also called compound 4 biotinylated at K18) [compound 19]",,"EC50 [µM], FXa generation assay with hFIXa (human Factor IXa [1]): < 0.5 µM; Kd (human Factor IXa [4]): 120 nM"
AVAINKVPCVASYCQLFESKIH,> 20 µM,
SGRGGKLTCQASFCQLFGNGLS,< 0.5 µM,

Binder,"EC50 [µM], FXa generation assay (human Factor IXa [1])",also measured
HYARVQLRCLDGYCWLLTKSRM,> 10 µM,
LLQIPNLTCLGSYCWLDNGVYA,> 50 µM,
SYGRTKLTCLASSCWLFGQVHG,> 10 µM,
TLLYQNRTCLASYCWLFDKRSV,> 50 µM,
GFGSRKLTSLASYGWLIQDRLP,> 50 µM,
[dK][NMeL]TCLASYCWLF-NH2 (cysteine pairing not given here) [compound 2],< 0.5 µM,"EC50 [µM], FXa generation assay with hFIXa (human Factor IXa [1]): < 0.5 µM; EC50 (µM), FXa generation assay, without phospholipids (human Factor IXa [2]): 0.2 µM"
AWPYHKPTCLASQCWQFLAQGS,> 50 µM,
SGFGMKLTCLASYCGLFQGEIG,< 0.5 µM,
GEGGGKLSCVAIQCGLFKGLGR,> 50 µM,
RRAPGKLQCLASYCWLFWTGAA,> 1 µM,
QDGVEKLTCLASYCWRFGDHGA,> 50 µM,
GIQGSEVACRASFCRLFEQGHV,> 50 µM,
AQLRRKLTCLASYCWLFGFFSP,> 1 µM,
YARDSTLTCQARTCQLVDYLGP,> 50 µM,
LLHAQKLSCLASYCWVFDAEWD,< 0.5 µM,
RSFTSELTCLASSCRRFHHVPP,> 20 µM,
